The experiment concerns the target T1, Hbs1 (S. cerevisiae, UniProt P32769 1-611).
T1 construct: Hbs1, S. cerevisiae, eEF1A-like GTPase; N-terminal domain is seen in the map, linker aa 78-140 disordered; source: E. coli BL21 (DE3), purified (Nickel-NTA, size-exclusion chromatography)
T1 sequence (looked up): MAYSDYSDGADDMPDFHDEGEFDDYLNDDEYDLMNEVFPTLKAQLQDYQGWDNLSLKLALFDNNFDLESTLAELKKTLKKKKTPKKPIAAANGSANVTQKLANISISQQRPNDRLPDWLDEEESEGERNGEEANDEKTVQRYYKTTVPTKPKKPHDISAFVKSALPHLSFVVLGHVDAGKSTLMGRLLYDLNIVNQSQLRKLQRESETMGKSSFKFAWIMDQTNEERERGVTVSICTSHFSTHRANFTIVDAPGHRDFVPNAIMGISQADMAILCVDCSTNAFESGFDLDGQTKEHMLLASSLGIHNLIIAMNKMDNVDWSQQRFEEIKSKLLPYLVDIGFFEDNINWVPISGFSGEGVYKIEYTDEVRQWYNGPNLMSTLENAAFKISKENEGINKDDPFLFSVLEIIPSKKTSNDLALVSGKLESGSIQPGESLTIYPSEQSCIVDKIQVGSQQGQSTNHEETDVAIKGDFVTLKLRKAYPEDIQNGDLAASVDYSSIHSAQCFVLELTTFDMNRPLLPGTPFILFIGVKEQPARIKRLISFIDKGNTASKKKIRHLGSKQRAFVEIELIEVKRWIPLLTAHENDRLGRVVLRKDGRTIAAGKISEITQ
As to the kind of experiment: cryo-EM structure; Dom34 and Hbs1 (50 pmol each) pre-incubated with 1 mM GMPPNP in binding buffer (30 mM Hepes pH 7.5), 20 min at 30 °C, then combined with 10 pmol reassociated S. cerevisiae 80S ribosomes programmed with nonstop mRNA and AcPhe-tRNAPhe, 15 min at 30 °C; reconstruction at 3.3 Å. Particulars: both partners purified.

The values below come from publication PMC5187420, “Structural insights into ribosomal rescue by Dom34 and Hbs1 at near-atomic resolution” (Nature Communications, 2016).

B1: Dom34 (natural protein, S. cerevisiae)
chain: MKVISLKKDSFNKGGAVITLLPEDKEDLFTVYQIVDKDDELIFKKKFTSKLDEAGKKKSTDLVKLKIKVISEDFDMKDEYLKYKGVTVTDESGASNVDIPVGKYLSFTLDYVYPFTIIKQNFNKFMQKLLNEACNIEYKSDTAAVVLQEGIAHVCLVTSSSTILKQKIEYSMPKKKRTTDVLKFDEKTEKFYKAIYSAMKKDLNFDKLKTIILCSPGFYAKILMDKIFQYAEEEHNKKILDNKGMFFIAHCSTGYLQGINEVLKNPLYASKLQDTKYSKEIMVMDEFLLHLNKDDDKAWYGEKEVVKAAEYGAISYLLLTDKVLHSDNIAQREEYLKLMDSVESNGGKALVLSTLHSLGEELDQLTGIACILKYPLPDLDEDDGEE
notes: Dom34, S. cerevisiae; also called Pelota in mammals; source: E. coli BL21 (DE3), purified (Nickel-NTA, size-exclusion chromatography)
Take B1: the binding result is recorded as “binds”.
